Consider three molecules from US20240325557A1, “TREATMENT OF CANCER” (INNATE PHARMA, priority 2020, published 2024).

Positions count from the first letter of the chain named. “Also recorded” adds a separate entry of the source.

The target in assay [1] is T1, Hu-Nectin4 IgC1C2-V5 (modified Nectin-4 lacking the Ig-like V domain, C1C2 construct) (Homo sapiens, UniProt Q96NY8).
T1 construct: expressed in transfected cells; host or cells: CHO
T1 sequence (Q96NY8 148-510): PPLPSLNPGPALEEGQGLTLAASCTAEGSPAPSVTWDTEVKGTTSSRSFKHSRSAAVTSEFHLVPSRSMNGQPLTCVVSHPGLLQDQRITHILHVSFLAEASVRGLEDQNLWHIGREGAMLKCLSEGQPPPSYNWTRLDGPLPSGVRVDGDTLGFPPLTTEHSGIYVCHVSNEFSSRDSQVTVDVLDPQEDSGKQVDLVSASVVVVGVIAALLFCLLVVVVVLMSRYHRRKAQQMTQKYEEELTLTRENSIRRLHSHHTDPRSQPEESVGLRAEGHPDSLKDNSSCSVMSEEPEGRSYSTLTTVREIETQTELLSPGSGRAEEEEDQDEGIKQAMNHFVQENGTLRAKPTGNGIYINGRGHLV
The assay is described as follows: Flow cytometry binding to cells expressing the Nectin-4 C1C2 construct. The method, then:
(§1) The characterization of the binding of the antibodies on Nectin-4 domains was performed by flow cytometry using cells made to express the wild-type human Nectin-4 protein and cells made to express a modified Nectin-4 having the Ig-like C2 type 1 and the Ig-like C2 type 2 domains and lacking the Ig-like V domain (the C1C2 construct). The latter protein additionally bears a V5 tag for flow cytometry cell sorting, and cells were used as Nectin4-C1C2-V5 sorted cells.
Wild-type Nectin-4 (the CI.3C8 cell line), a C2 construct (containing the Ig-like C2 type 2 domain and lacking both the V and the C1 domains) and the C1C2 construct allow the determination of whether test antibodies bind to the V or different C domains. Briefly, nucleic acid sequences encoding different human Nectin-4 domains were amplified by PCR. The PCR products were inserted into an expression vector at appropriate restriction sites. A leader peptide, and for C1C2 and C2 an N-terminal V5 tag having the amino acid sequence […] (SEQ ID NO: 41), were added, and expression at the surface of cells was confirmed by flow cytometry. The amino acid sequences of the resulting different human Nectin-4 domain fragment-containing proteins are shown below (V5 tag underlined). The vectors were then transfected into the CHO cell line to obtain stable clones expressing the different Nectin-4 domain proteins at the cell surface.

In a further assay the target is T2, wild-type human Nectin-4 (Homo sapiens, UniProt Q96NY8).
T2 construct: expressed in transfected cells; host or cells: CHO (huNectin4 Cl.3C8)
T2 sequence (Q96NY8 32-510): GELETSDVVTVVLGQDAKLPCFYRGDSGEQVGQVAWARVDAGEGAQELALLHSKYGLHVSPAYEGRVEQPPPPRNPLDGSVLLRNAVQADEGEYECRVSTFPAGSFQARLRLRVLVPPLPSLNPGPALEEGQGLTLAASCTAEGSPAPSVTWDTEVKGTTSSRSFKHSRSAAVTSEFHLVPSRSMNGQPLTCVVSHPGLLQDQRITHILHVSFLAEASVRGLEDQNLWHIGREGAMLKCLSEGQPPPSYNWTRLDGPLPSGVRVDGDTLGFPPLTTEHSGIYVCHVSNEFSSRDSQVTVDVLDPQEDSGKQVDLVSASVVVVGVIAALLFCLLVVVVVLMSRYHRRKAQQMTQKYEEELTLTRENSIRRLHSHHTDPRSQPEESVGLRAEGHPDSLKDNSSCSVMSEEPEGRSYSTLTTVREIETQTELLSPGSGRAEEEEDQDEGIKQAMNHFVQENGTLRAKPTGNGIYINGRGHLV
The assay is described as follows: Flow cytometry binding to wild-type Nectin-4 expressing CHO cells. The method, then:
plates of hybridoma supernatants were tested for binding on the wild-type human Nectin-4 expressing CHO cell line by flow cytometry. Briefly, Nectin-4 expressing cells were used at 0.2×10^6 cells by well in a buffer of PBS, BSA 0.5%, EDTA 5 mM. The first antibody was incubated with cells for 1h at +5±3° C. in 50 μL of supernatant. […] Acquisition HTFC flow cytometer (Intellicyt), with data analysis on ForeCyt™ software.
as §1
Wild-type Nectin-4 (the CI.3C8 cell line), a C2 construct (containing the Ig-like C2 type 2 domain and lacking both the V and the C1 domains) and the C1C2 construct allow the determination of whether test antibodies bind to the V or different C domains. Briefly, nucleic acid sequences encoding different human Nectin-4 domains were amplified by PCR. The PCR products were inserted into an expression vector at appropriate restriction sites. […] The amino acid sequences of the resulting different human Nectin-4 domain fragment-containing proteins are shown below (V5 tag underlined). The vectors were then transfected into the CHO cell line to obtain stable clones expressing the different Nectin-4 domain proteins at the cell surface.
On the technique in general: In flow cytometry, cells or beads pass a laser one at a time.

Assay [2] in a line: Binding to HEK-293T cells, negative control of the point mutant test. Also noted: species or system human. As to the method: Nectin-4 mutants were generated by PCR. The sequences amplified were run on agarose gel and purified using the Macherey Nagel PCR Clean-Up Gel Extraction kit. The purified PCR products generated for each mutant were then ligated into an expression vector, with the ClonTech InFusion system. The vectors containing the mutated sequences were prepared as Miniprep and sequenced. After sequencing, the vectors containing the mutated sequences were prepared as Midiprep using the Promega PureYield™ Plasmid Midiprep System. HEK293T cells were grown in DMEM medium (Invitrogen), transfected with vectors using Invitrogen's Lipofectamine 2000 and incubated at 37° C. in a CO2 incubator for 48 hours prior to testing for transgene expression. The targeted amino acid mutations are shown in Table 2 below, listing the residue present in wild-type Nectin-4/position of residue/residue present in mutant Nectin-4, with position reference being to the Nectin-4 protein with leader peptide shown in SEQ ID NO: 1.

A further assay concerns SUM190 cells. Briefly: Fab-ZAP internalization assay (CTG cell viability). The format is cell-based, human. As to the method:
The ability of the anti-Nectin-4 antibodies to induce nectin-4 internalization was assessed on SUM190 cell lines expressing lower levels of nectin-4 and in SUM185 cells expressing higher levels of Nectin-4. The internalization was indirectly determined by using the Fab-ZAP human Internalization Kit (Advanced Targeting Systems) to allow the anti-Nectin-4 antibodies to target and eliminate Nectin-4 expressing cells, with measurement of cell viability using the CTG substrate (CellTiter-Glo® Luminescent Cell Viability Assay (Promega). Fab-ZAP is a chemical conjugate of goat anti-human monovalent antibody and the ribosome-inactivating protein, saporin. The antibodies used are affinity-purified polyclonal antibodies against both the heavy and light chain of human IgG. This secondary conjugate is used to evaluate the potential of a primary antibody to internalize.
Briefly, a concentration range of the anti-Nectin-4 antibodies or the controls were incubated with SUM190 or SUM185 cells. After 45-minute incubation at 4° C., the non-bound antibodies were washed away and Fab-ZAP was added on top of the cells. The newly formed complexes (anti-nectin-4 antibody+Fab-ZAP) internalized into the cells where the Saporin was released and stopped the protein synthesis leading to cell death. The internalization capability of the antibody was indirectly determined by the cell's viability: the more efficient was the cell killing; the better was the internalization capability of the antibody.

B1: N41 (antibody, V domains shown)
VH: QVQLKQSGPGLVQPSQSLSITCTVSGFSLTNYGVHWVRQSPGKGLEWLGVIWSGGSTDYNAAFISRLSISKDTSKSQVFFKMNSLQADDTAIYYCARELIHAMDNWGQGTSVTVSS
VL: DIQMTQSPASLSVSVGETVTITCRASENIYSNLAWYQQKQGNSPQLLVFAATNLADGVPSRFSGSGSGTQYSLKINSLQSEDFGTYYCQHFWGTPTFGGGTKLEIK
For B1, the “binding to the C1C2 construct” value in assay [1] is “lost all binding to the C1C2 construct”. The “binding to whole (wild-type) human Nectin-4 protein” value (“binding to whole” below) in the assay with wild-type human Nectin-4 was “bound to the whole Nectin-4 protein”. For the same molecule, the “association, EXPI medium (negative control)” value (from here on “association, EXPI medium”) in assay [2] is given as “−”.

B2: 5E7 (antibody, V domains shown)
VH: QVQLQQPGAELVKPGASVKLSCKASGYIFTSYWMHWVKQRPGQGLEWIGEIDPSDSYTNYNQKFKGKATLTLDKSSSTTYMQLSSLTSEDSAVYYCVRGYGNYGDYWGQGTTLTVSS
VL: DVVMTQAAFSNPVTLGTSASISCRSSKSLLHSNGITYLYWYLQKPGQSPQLLIYQMSNLASGVPDRFSSSGSGTDFTLRISRVEAEDVGVYYCAQNLELPWTFGGGTKLEIK
For the molecule B2, the “binding to the C1C2 construct” value in assay [1] is “partial loss of binding to the C1C2 construct; also recorded: retain binding to the C1C2 construct”. Besides, the “binding to whole” value in the assay with wild-type human Nectin-4 is “lower plateau”. The induction of internalization result in the assay with SUM190 cells is “as efficient as the enfortumab in inducing internalization”. Moreover, the “association, EXPI medium” value in assay [2] is on record as “−”.

B3: 10B12: anti-Nectin-4 antibody, VH SEQ ID NO: 24, VL SEQ ID NO: 25, binds junction of domain C1 and V (antibody, listed as Mus musculus, V domains shown)
VH: B2 VH with I28T, L72V, T79A
VL: B2 VL with V2I
B3: in assay [1], the “binding to the C1C2 construct” value is listed as “partial loss of binding to the C1C2 construct; also recorded: retain binding to the C1C2 construct”. The “binding to whole” value in the assay with wild-type human Nectin-4 is “lower plateau”. In addition, the induction of internalization entry in the assay on SUM190 cells is on record as “as efficient as the enfortumab in inducing internalization”. In addition, in assay [2], the “association, EXPI medium” value is listed as “−”.
